Test results from US20210403506A1 (XDCEXPLORER SHANGHAI, published 2021).
Square brackets hold non-standard residues; d marks the D form. Primed or numbered codes have the meaning given here. Ends that are not written are not given here. * marks the point of attachment. Pro(trans-4-Ph) = O=C(O)[C@@H]1C[C@@H](c2ccccc2)CN1; Bpa = N[C@@H](Cc1ccc(C(=O)c2ccccc2)cc1)C(=O)O; Pro(5R-Ph) = O=C(O)[C@@H]1CC[C@H](c2ccccc2)N1; dTyr(3-F) = N[C@H](Cc1ccc(O)c(F)c1)C(=O)O; PEG8 = NCCOCCOCCOCCOCCOCCOCCOCCOCCC(=O)O; Phe(4-Cl) = N[C@@H](Cc1ccc(Cl)cc1)C(=O)O; Pro(diF)″ = difluoroproline (DiFluorPro); Phe(4-Me) = Cc1ccc(C[C@H](N)C(=O)O)cc1; 1Nal = N[C@@H](Cc1cccc2ccccc12)C(=O)O; 2Nal = N[C@@H](Cc1ccc2ccccc2c1)C(=O)O; dNMeY = CN[C@H](Cc1ccc(O)cc1)C(=O)O; Hydrocinnamoyl = O=C(CCc1ccccc1)*; Palmitoyl = CCCCCCCCCCCCCCCC(=O)*; Hyp = O=C(O)[C@@H]1C[C@@H](O)CN1; NMeF = CN[C@@H](Cc1ccccc1)C(=O)O; 3‑phenylpropyl = c1ccc(CCC*)cc1; Tic = O=C(O)[C@@H]1Cc2ccccc2CN1; NMeL = CN[C@@H](CC(C)C)C(=O)O; Pro(4Ph) = 4-phenylproline; NMeS = CN[C@@H](CO)C(=O)O; Thz = O=C(O)[C@@H]1CSCN1; βAla = NCCC(=O)O

T1: human Chemokine like receptor 1 (human, UniProt Q99788 1-373)
T1 sequence (looked up): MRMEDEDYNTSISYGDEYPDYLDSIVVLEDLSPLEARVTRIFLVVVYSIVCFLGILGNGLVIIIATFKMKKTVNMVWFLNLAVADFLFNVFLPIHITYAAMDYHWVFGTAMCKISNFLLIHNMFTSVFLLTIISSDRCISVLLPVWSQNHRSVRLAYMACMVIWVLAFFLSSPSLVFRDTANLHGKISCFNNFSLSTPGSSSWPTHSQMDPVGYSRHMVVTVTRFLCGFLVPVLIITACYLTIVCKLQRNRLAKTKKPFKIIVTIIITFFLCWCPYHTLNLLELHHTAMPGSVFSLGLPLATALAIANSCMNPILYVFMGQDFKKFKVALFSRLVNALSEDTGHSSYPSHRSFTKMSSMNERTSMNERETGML

B1: YW-110 (peptide)
peptide: [dY]FLP[dS]QF[dA][Tic][NMeS]-OH
modifications: N-terminus assumed
SMILES: CC(C)C[C@H](NC(=O)[C@H](Cc1ccccc1)NC(=O)[C@H](N)Cc1ccc(O)cc1)C(=O)N1CCC[C@H]1C(=O)N[C@H](CO)C(=O)N[C@@H](CCC(N)=O)C(=O)N[C@@H](Cc1ccccc1)C(=O)N[C@H](C)C(=O)N1Cc2ccccc2C[C@H]1C(=O)N(C)[C@@H](CO)C(=O)O
B2: YW-111 (peptide)
peptide: Hydrocinnamoyl-[dY]F[NMeL]P[dS]QF[dA][Tic]S-OH
SMILES: CC(C)C[C@@H](C(=O)N1CCC[C@H]1C(=O)N[C@H](CO)C(=O)N[C@@H](CCC(N)=O)C(=O)N[C@@H](Cc1ccccc1)C(=O)N[C@H](C)C(=O)N1Cc2ccccc2C[C@H]1C(=O)N[C@@H](CO)C(=O)O)N(C)C(=O)[C@H](Cc1ccccc1)NC(=O)[C@@H](Cc1ccc(O)cc1)NC(=O)CCc1ccccc1
B3: YW-97 (peptide)
peptide: [dF]FLP[dS]QF[dA][Tic]S-OH
modifications: N-terminus assumed
SMILES: CC(C)C[C@H](NC(=O)[C@H](Cc1ccccc1)NC(=O)[C@H](N)Cc1ccccc1)C(=O)N1CCC[C@H]1C(=O)N[C@H](CO)C(=O)N[C@@H](CCC(N)=O)C(=O)N[C@@H](Cc1ccccc1)C(=O)N[C@H](C)C(=O)N1Cc2ccccc2C[C@H]1C(=O)N[C@@H](CO)C(=O)O
B4: YW-121 (peptide)
peptide: [dY]F[NMeL][Thz][dS]QF[dA][Tic]S-OH
modifications: N-terminus assumed
SMILES: CC(C)C[C@@H](C(=O)N1CSC[C@H]1C(=O)N[C@H](CO)C(=O)N[C@@H](CCC(N)=O)C(=O)N[C@@H](Cc1ccccc1)C(=O)N[C@H](C)C(=O)N1Cc2ccccc2C[C@H]1C(=O)N[C@@H](CO)C(=O)O)N(C)C(=O)[C@H](Cc1ccccc1)NC(=O)[C@H](N)Cc1ccc(O)cc1
B5: YW-112 (peptide)
peptide: [dY]FL[Pro(5R-Ph)][dS]QF[dA][Tic]S-OH
modifications: N-terminus assumed
SMILES: CC(C)C[C@H](NC(=O)[C@H](Cc1ccccc1)NC(=O)[C@H](N)Cc1ccc(O)cc1)C(=O)N1[C@@H](c2ccccc2)CC[C@H]1C(=O)N[C@H](CO)C(=O)N[C@@H](CCC(N)=O)C(=O)N[C@@H](Cc1ccccc1)C(=O)N[C@H](C)C(=O)N1Cc2ccccc2C[C@H]1C(=O)N[C@@H](CO)C(=O)O
B6: YW-103 (peptide)
peptide: [dNMeY]FLP[dS]QF[dA][Tic]S-OH
modifications: N-terminus assumed
SMILES: CN[C@H](Cc1ccc(O)cc1)C(=O)N[C@@H](Cc1ccccc1)C(=O)N[C@@H](CC(C)C)C(=O)N1CCC[C@H]1C(=O)N[C@H](CO)C(=O)N[C@@H](CCC(N)=O)C(=O)N[C@@H](Cc1ccccc1)C(=O)N[C@H](C)C(=O)N1Cc2ccccc2C[C@H]1C(=O)N[C@@H](CO)C(=O)O
B7: YW-221 (peptide)
peptide: [dTyr(3-F)]F[NMeL]P[dS]Q[2Nal][dA][Tic][NMeS]
modifications: not fully specified (residue 4); printed as (D-Tyr(3F))-Phe-(NMe-Leu)-Pro(tran-4F)-(D-Ser)-Gln-(Nal-2)-(D-Ala)-Tic-(NMe-Ser)
B8: YW-104 (peptide)
peptide: [dY][NMeF]LP[dS]QF[dA][Tic]S-OH
modifications: N-terminus assumed
SMILES: CC(C)C[C@H](NC(=O)[C@H](Cc1ccccc1)N(C)C(=O)[C@H](N)Cc1ccc(O)cc1)C(=O)N1CCC[C@H]1C(=O)N[C@H](CO)C(=O)N[C@@H](CCC(N)=O)C(=O)N[C@@H](Cc1ccccc1)C(=O)N[C@H](C)C(=O)N1Cc2ccccc2C[C@H]1C(=O)N[C@@H](CO)C(=O)O
B9: YW-220 (peptide)
peptide: [dNMeY]F[NMeL]P[dS]Q[2Nal][dA][Tic][NMeS]
modifications: not fully specified (residue 4); printed as (NMe-D-Tyr)-Phe-(NMe-Leu)-Pro(tran-4F)-(D-Ser)-Gln-(Nal-2)-(D-Ala)-Tic-(NMe-Ser)
B10: YW-222 (peptide)
peptide: [dTyr(3-F)]F[NMeL]P[dS]Q[2Nal][dA][Tic]S
modifications: not fully specified (residue 4); printed as [D-Tyr(3F)]-Phe-(NMe-Leu)-Pro(tran-4F)-(D-Ser)-Gln-(Nal-2)-(D-Ala)-Tic-Ser

biological target: T1, human Chemokine like receptor 1; assay: cell-based or functional assay

In order of rising “EC50 (µM), activation of Tango CMKLR1-bla U2OS cells” value:
1. GG[dY]F[NMeL]P[dS]Q[2Nal][dA][Tic]S (not fully specified (residue 6, N-terminus)) [YW-223]  0.00033 µM
2. B10  0.00034 µM
3. [dY]F[NMeL][Thz][dS]Q[2Nal][dA][Tic]S-OH [YW-122]  0.0006 µM
4. [dNMeY]F[NMeL][Pro(diF)″][dS]Q[2Nal][dA][Tic][NMeS]-OH [YW-225]  0.00064 µM
5. B9  0.00067 µM
6. B7  0.00068 µM
7. B4  0.0007 µM
8. {4‑(trifluoromethyl)benzoyl}-[dY]F[NMeL]P[dS]QF[dA][Tic]S-OH [YW-195]  0.0008 µM
9. {3‑phenylpropyl}-[dY]F[NMeL]P[dS]QF[dA][Tic]S-OH [YW-207]  0.00092 µM
10. [dY]F[NMeL][Pro(diF)][dS]Q[2Nal][dA][Tic][NMeS] [YW-224]  0.0013 µM
11. [dNMeY]F[NMeL][Pro(4Ph)][dS]Q[2Nal][dA][Tic]S [YW-216]  0.0013 µM
12. B2  0.002 µM
13. [dY][1Nal][NMeL]P[dS]QF[dA][Tic]S [YW-199]  0.0029 µM
14. {Palmitoyl-PEG8}-[βAla][βAla][dNMeY]F[NMeL][Pro(trans-4-Ph)][dS]Q[2Nal][dA][Tic]S [YW-217]  0.0033 µM
15. [dTyr(3-F)]F[NMeL][Pro(diF)″][dS]Q[2Nal][dA][Tic][NMeS]-OH [YW-226]  0.0033 µM
16. [dY]F[NMeL][Pro(trans-4-Ph)][dS]QF[dA][Tic]S [YW-215]  0.0048 µM
17. [dY]F[NMeL][Hyp][dS]QF[dA][Tic]S [YW-198]  0.0053 µM
18. [dY]F[NMeL]P[dS]QF[dA][Phe(4-Me)]S [YW-205]  0.0062 µM
19. [dY][Phe(4-Me)][NMeL]P[dS]QF[dA][Tic]S [YW-202]  0.0064 µM
20. [dY][Phe(4-Cl)][NMeL]P[dS]QF[dA][Tic]S [YW-203]  0.0082 µM
21. [dY]FL[Pro(4Ph)][dS]QF[dA][Tic]S-OH [YW-113]  0.0086 µM
22. [dY]F[NMeL]P[dS]QF[dA][Phe(4-Cl)]S [YW-206]  0.009 µM
23. B6  0.0094 µM
24. B1  0.013 µM
25. [dY][2Nal][NMeL]P[dS]QF[dA][Tic]S [YW-200]  0.019 µM
26. [dY]FL[S‑Pip][dS]QF[dA][Tic]S [YW-96]  0.039 µM
27. B3  0.05 µM
28. [dY]F[NMeL]P[dT]QF[dA][Tic]S [YW-204]  0.062 µM
29. [dY][Bpa][NMeL]P[dS]QF[dA][Tic]S [YW-201]  0.076 µM
30. B8  0.08 µM
31. B5  0.17 µM
